Measurements as given in patent publication US20140274782A1, “AFFINITY REAGENTS AND METHODS FOR DETECTION, PURIFICATION, AND PROTEOMIC ANALYSIS OF METHYLATED PROTEINS” (The Board of Trustees of the Leland Stanford Junior …, priority 2013, published 2014).

What was measured:
3×MBT domain of L3MBTL1 = experiment: Triple SILAC pull-down, 3xMBT/3xMBTD355N ratio (cytoplasmic, nuclear and chromatin fractions of 293T cells); assay type: binding, human; conditions: for 3xMBT/D355N UNC Heavy: experiment with UNC0638 in heavy SILAC media; for 3xMBT/D355N UNC Light: experiment with UNC0638 in light SILAC media; for Protein Ratios 3xMBT/D355N: pull-down by 3xMBT vs 3xMBTD355N;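 as to all read-outs here: proteins quantified with MaxQuant, requiring at least two unique peptides and quantification in both label directions, normalized to the mean of proteins from a digested loading control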
G9a and GLP = molecular target: T1, G9a and GLP (Homo sapiens, UniProt Q96KQ7+Q9H9B1); experiment: Triple SILAC pull-down after UNC0638 treatment of 293T cells, DMSO/UNC0638 ratio of protein captured by 3×MBT; assay type: cell-based; conditions: for Relative to UNC0638 UNC Heavy: UNC0638 in heavy SILAC media; for Relative to UNC0638 UNC Light: UNC0638 in light SILAC media; for Relative to UNC0638 Average: average of UNC Light and UNC Heavy experiments; for Protein Ratios DMSO/UNC0638: SILAC ratio of protein captured by 3xMBT, 293T cells treated 24 hours with UNC0638 at 2.5 μM or DMSO;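 as to all read-outs here: mass spectrometry (Q-Exactive) SILAC quantitation, DMSO/UNC0638 ratio computed after subtracting 3×MBTD355N mutant pull-down background, only proteins with at least twofold 3×MBT over mutant signal considered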
T1 construct: endogenous in cells; host or cells: HEK 293T
T1 sequence (Q96KQ7 2-1210 limits assumed): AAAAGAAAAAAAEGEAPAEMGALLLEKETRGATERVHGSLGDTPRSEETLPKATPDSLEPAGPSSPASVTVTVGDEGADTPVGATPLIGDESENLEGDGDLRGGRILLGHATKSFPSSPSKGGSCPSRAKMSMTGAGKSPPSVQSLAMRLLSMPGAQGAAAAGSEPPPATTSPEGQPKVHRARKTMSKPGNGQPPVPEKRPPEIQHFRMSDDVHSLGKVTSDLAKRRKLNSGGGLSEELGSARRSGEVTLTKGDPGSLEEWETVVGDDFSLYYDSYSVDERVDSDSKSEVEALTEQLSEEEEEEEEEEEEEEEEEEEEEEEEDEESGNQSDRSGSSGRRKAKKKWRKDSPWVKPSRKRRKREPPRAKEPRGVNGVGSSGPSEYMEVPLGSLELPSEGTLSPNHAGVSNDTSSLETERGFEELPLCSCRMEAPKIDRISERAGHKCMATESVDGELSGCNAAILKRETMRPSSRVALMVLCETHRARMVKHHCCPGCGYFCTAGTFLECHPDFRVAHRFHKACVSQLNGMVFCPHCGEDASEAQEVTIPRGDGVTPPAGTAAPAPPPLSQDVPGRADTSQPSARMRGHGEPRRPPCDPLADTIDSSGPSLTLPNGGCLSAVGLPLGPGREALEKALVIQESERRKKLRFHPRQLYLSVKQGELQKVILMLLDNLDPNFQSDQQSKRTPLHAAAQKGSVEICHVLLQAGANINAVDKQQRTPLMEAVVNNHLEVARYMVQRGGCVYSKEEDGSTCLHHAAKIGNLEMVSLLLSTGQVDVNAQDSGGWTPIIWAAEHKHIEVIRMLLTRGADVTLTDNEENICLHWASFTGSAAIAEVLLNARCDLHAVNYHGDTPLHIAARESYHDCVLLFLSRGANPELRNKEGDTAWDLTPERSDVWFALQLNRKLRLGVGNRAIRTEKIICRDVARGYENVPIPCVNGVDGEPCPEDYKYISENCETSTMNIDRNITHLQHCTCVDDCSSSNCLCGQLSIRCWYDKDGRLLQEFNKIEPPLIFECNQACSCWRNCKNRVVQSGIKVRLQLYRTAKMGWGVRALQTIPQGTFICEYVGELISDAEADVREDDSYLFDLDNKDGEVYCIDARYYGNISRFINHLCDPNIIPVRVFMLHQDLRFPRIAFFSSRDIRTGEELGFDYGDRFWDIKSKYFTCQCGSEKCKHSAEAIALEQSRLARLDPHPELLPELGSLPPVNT
T1 sequence (Q9H9B1 2-1298 limits assumed): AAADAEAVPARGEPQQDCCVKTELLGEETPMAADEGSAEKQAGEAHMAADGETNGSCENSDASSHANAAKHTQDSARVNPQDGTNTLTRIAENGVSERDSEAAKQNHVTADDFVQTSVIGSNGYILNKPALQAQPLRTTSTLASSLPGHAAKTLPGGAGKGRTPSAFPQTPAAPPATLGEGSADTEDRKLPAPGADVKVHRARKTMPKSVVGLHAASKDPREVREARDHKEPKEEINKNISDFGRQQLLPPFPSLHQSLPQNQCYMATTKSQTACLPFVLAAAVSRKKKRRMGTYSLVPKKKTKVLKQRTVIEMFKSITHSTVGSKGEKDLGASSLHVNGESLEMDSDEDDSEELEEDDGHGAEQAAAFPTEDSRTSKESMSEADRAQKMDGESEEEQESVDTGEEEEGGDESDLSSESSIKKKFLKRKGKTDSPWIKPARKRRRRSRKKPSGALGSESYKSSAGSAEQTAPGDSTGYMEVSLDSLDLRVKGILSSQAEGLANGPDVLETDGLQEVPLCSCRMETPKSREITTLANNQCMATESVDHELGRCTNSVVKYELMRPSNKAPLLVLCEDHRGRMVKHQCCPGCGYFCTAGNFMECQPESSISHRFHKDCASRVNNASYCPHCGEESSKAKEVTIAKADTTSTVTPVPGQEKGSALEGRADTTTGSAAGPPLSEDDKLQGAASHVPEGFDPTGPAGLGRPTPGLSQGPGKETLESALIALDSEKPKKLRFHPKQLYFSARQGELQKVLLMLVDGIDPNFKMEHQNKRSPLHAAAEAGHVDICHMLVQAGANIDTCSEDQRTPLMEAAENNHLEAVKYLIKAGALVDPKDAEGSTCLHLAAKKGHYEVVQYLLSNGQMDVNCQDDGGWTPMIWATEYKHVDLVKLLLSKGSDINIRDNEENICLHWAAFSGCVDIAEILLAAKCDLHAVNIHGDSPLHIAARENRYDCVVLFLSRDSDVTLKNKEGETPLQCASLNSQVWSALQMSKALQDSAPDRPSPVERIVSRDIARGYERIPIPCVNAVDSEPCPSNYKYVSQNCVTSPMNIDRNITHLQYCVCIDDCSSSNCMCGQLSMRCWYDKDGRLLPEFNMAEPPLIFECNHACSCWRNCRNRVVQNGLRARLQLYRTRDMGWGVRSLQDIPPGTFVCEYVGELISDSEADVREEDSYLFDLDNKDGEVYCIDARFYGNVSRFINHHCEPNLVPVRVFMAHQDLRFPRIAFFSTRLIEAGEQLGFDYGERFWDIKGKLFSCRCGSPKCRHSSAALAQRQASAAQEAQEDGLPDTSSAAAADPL

[1] = SILAC ratio, pull-down 3xMBT vs 3xMBTD355N
[2] = SILAC ratio DMSO/UNC0638 of protein pulled down with 3xMBT
[3] = SILAC ratio 3xMBT vs 3xMBTD355N pull-down, 293T cells, all values in log base 2
[4] = SILAC ratio DMSO relative to UNC0638, pull-down with 3xMBT, all values in log base 2

Relative to UNC0638 UNC Heavy (G9a and GLP; [2])	Relative to UNC0638 UNC Light (G9a and GLP; [2])	Relative to UNC0638 Average (G9a and GLP)	Relative to UNC0638 UNC Heavy (G9a and GLP; [4])	Relative to UNC0638 UNC Light (G9a and GLP; [4])	Relative to UNC0638 Average (G9a and GLP; all values in log base 2)	Protein Ratios DMSO/UNC0638 (G9a and GLP)	Candidate G9a/GLP target (G9a and GLP; reduced association with 3xMBT after UNC0638 treatment)	Substance	3xMBT/D355N UNC Heavy (3×MBT domain of L3MBTL1; [1])	3xMBT/D355N UNC Light (3×MBT domain of L3MBTL1; [1])	3xMBT/D355N UNC Heavy (3×MBT domain of L3MBTL1; [3])	3xMBT/D355N UNC Light (3×MBT domain of L3MBTL1; [3])	Protein Ratios 3xMBT/D355N (3×MBT domain of L3MBTL1; SILAC ratio, 293T cells)
0.46 log base 2	−0.24 log base 2	0.11 log base 2	–	–	–	–	–	TRIP12	0.66 log base 2	1.34 log base 2	–	–	–
–	–	–	0.14 log base 2	−0.24 log base 2	−0.05 log base 2	–	–	GAPDH	–	–	1.86 log base 2	1.59 log base 2	–
–	–	–	0.15 log base 2	−0.14 log base 2	0.01 log base 2	–	–	RAD50	–	–	2.20 log base 2	2.08 log base 2	–
–	–	–	−0.20 log base 2	−0.01 log base 2	−0.10 log base 2	–	–	G6PD [Hit G6PD]	–	–	0.75 log base 2	1.96 log base 2	–
–	–	–	–	–	–	1.4	–	DNA-binding protein A	–	–	–	–	11.1
0.04 log base 2	0.23 log base 2	0.13 log base 2	–	–	–	–	–	SUPT16H	3.66 log base 2	4.01 log base 2	–	–	–
0.36 log base 2	0.33 log base 2	0.34 log base 2	–	–	–	–	–	EFTUD2	1.98 log base 2	2.07 log base 2	–	–	–
1.93 log base 2	−0.06 log base 2	0.93 log base 2	–	–	–	–	–	GTF3C1	0.63 log base 2	2.08 log base 2	–	–	–

The remaining lines, values behind:

Substance	Relative to UNC0638 UNC Heavy (G9a and GLP; [2])	Relative to UNC0638 UNC Light (G9a and GLP; [2])	Relative to UNC0638 Average (G9a and GLP)	Relative to UNC0638 UNC Heavy (G9a and GLP; [4])	Relative to UNC0638 UNC Light (G9a and GLP; [4])	Relative to UNC0638 Average (G9a and GLP; all values in log base 2)	Protein Ratios DMSO/UNC0638 (G9a and GLP)	Candidate G9a/GLP target (G9a and GLP; reduced association with 3xMBT after UNC0638 treatment)	3xMBT/D355N UNC Heavy (3×MBT domain of L3MBTL1; [1])	3xMBT/D355N UNC Light (3×MBT domain of L3MBTL1; [1])	3xMBT/D355N UNC Heavy (3×MBT domain of L3MBTL1; [3])	3xMBT/D355N UNC Light (3×MBT domain of L3MBTL1; [3])	Protein Ratios 3xMBT/D355N (3×MBT domain of L3MBTL1; SILAC ratio, 293T cells)
TFG	0.16 log base 2	0.22 log base 2	0.19 log base 2	–	–	–	–	–	4.21 log base 2	4.03 log base 2	–	–	–
MK167	0.61 log base 2	−0.25 log base 2	0.18 log base 2	–	–	–	–	–	2.59 log base 2	2.26 log base 2	–	–	–
HNRNPAB	0.09 log base 2	0.32 log base 2	0.20 log base 2	–	–	–	–	–	4.00 log base 2	4.21 log base 2	–	–	–
EIF4G1	0.07 log base 2	0.25 log base 2	0.16 log base 2	–	–	–	–	–	3.18 log base 2	3.31 log base 2	–	–	–
RFC4	0.32 log base 2	0.26 log base 2	0.29 log base 2	–	–	–	–	–	1.95 log base 2	1.80 log base 2	–	–	–
DDX39A	0.36 log base 2	0.01 log base 2	0.18 log base 2	–	–	–	–	–	2.00 log base 2	1.53 log base 2	–	–	–
NONO	0.17 log base 2	0.16 log base 2	0.17 log base 2	–	–	–	–	–	3.18 log base 2	3.75 log base 2	–	–	–
VRK1	0.21 log base 2	0.03 log base 2	0.12 log base 2	–	–	–	–	–	2.10 log base 2	2.56 log base 2	–	–	–
DNA-dependent protein kinase catalytic subunit	–	–	–	–	–	–	1.5	–	–	–	–	–	4.5
DDX6	0.14 log base 2	0.22 log base 2	0.18 log base 2	–	–	–	–	–	3.18 log base 2	3.05 log base 2	–	–	–
UHRF1	–	–	–	0.54 log base 2	−0.45 log base 2	0.04 log base 2	–	–	–	–	3.68 log base 2	2.24 log base 2	–
BUB3	0.15 log base 2	0.14 log base 2	0.15 log base 2	–	–	–	–	–	2.75 log base 2	3.26 log base 2	–	–	–
RECQL	0.71 log base 2	0.21 log base 2	0.46 log base 2	–	–	–	–	✓	3.43 log base 2	5.03 log base 2	–	–	–
ZNF207	0.34 log base 2	0.09 log base 2	0.21 log base 2	–	–	–	–	–	2.48 log base 2	3.12 log base 2	–	–	–
MDC1	0.36 log base 2	0.11 log base 2	0.24 log base 2	–	–	–	–	–	2.31 log base 2	2.83 log base 2	–	–	–
